Reference: patent US20230002480A1

Key:
Experiment in all cases: cell-based or functional assay
[1] = target: HIV-1 Env pseudovirus BJOX015000.11.5 (HIV-1)
[2] = target: HIV-1 Env pseudovirus T251-18 (HIV-1)
[3] = target: HIV-1 Env pseudovirus 191084 B7-19 (HIV-1)
[4] = target: HIV-1 Env pseudovirus BJOX025000.01.1 (HIV-1)
[5] = target: HIV-1 Env pseudovirus C4118.c09 (HIV-1)
[6] = target: HIV-1 Env pseudovirus X1193_c1 (HIV-1)
[7] = target: HIV-1 Env pseudovirus T255-34 (HIV-1)
[8] = target: HIV-1 Env pseudovirus P1981_C5_3 (HIV-1)
[9] = target: HIV-1 Env pseudovirus 3817.v2.c59 (HIV-1)
[10] = target: HIV-1 Env pseudovirus R2184.c04 (HIV-1)
[11] = target: HIV-1 Env pseudovirus C3347.c11 (HIV-1)
[12] = target: HIV-1 Env pseudovirus P0402_c2_11 (HIV-1)
[13] = target: HIV-1 Env of pseudovirus HIV-001428-2.42 (clade C) (HIV-1)
[14] = target: HIV-1 Env of pseudovirus 1056_10_TA11_1826 (clade B (T/F)) (HIV-1)
[15] = target: HIV-1 Env of pseudovirus 6244_13_B5_4576 (clade B (T/F)) (HIV-1)
[16] = target: HIV-1 Env of pseudovirus 249M B10 (clade C (T/F)) (HIV-1)
[17] = target: HIV-1 Env of pseudovirus CNE53 (clade BC) (HIV-1)
[18] = target: HIV-1 Env of pseudovirus Ce703010054_2A2 (clade C (T/F)) (HIV-1)
[19] = target: HIV-1 Env of pseudovirus HIV-0013095-2.11 (clade C) (HIV-1)
[20] = target: HIV-1 Env of pseudovirus ZM135M.PL10a (clade C) (HIV-1)
[21] = target: HIV-1 Env of pseudovirus Ce0682_E4 (clade C (T/F)) (HIV-1)
[22] = target: HIV-1 Env of pseudovirus PVO.4 (clade B) (HIV-1)
[23] = target: HIV-1 Env of pseudovirus Du156.12 (clade C) (HIV-1)
[24] = target: HIV-1 Env of pseudovirus QH0692.42 (clade B) (HIV-1)
[25] = target: HIV-1 Env of pseudovirus CAAN5342.A2 (clade B) (HIV-1)
[26] = target: HIV-1 Env of pseudovirus Q461.e2 (clade A) (HIV-1)
[27] = target: HIV-1 Env of pseudovirus AC10.0.29 (clade B) (HIV-1)

N49P9.1 (antibody)
IC50 [1]: 0.068 µg/mL
IC80 [1]: 0.478 µg/mL
MPI [1]: 100
IC50 [2]: 0.127 µg/mL
IC80 [2]: 0.352 µg/mL
MPI [2]: 100
IC50 [3]: 0.097 µg/mL
IC80 [3]: 0.259 µg/mL
MPI [3]: 100
IC50 [4]: 0.131 µg/mL
IC80 [4]: 0.67 µg/mL
MPI [4]: 100
IC50 [5]: 0.062 µg/mL
IC80 [5]: 0.218 µg/mL
MPI [5]: 100
IC50 [6]: 0.042 µg/mL
IC80 [6]: 0.15 µg/mL
MPI [6]: 100
IC50 [7]: 0.092 µg/mL
IC80 [7]: 0.286 µg/mL
MPI [7]: 100
IC50 [8]: 0.469 µg/mL
IC80 [8]: 1.52 µg/mL
MPI [8]: 100
IC50 [9]: 1.35 µg/mL
IC80 [9]: 8.26 µg/mL
MPI [9]: 95
IC50 [10]: 0.019 µg/mL
IC80 [10]: 0.057 µg/mL
MPI [10]: 100
IC50 [11]: 0.029 µg/mL
IC80 [11]: 0.083 µg/mL
MPI [11]: 100
IC50 [12]: 0.06 µg/mL
IC80 [12]: 0.163 µg/mL
MPI [12]: 100

N49P19 (antibody)
IC50 [1]: 0.756 µg/mL
IC80 [1]: 3.17 µg/mL
MPI [1]: 99
IC50 [2]: 0.938 µg/mL
IC80 [2]: 4.2 µg/mL
MPI [2]: 100
IC50 [3]: 0.357 µg/mL
IC80 [3]: 1.34 µg/mL
MPI [3]: 100
IC50 [4]: > 50 µg/mL
IC80 [4]: > 50 µg/mL
MPI [4]: 24
IC50 [5]: 0.386 µg/mL
IC80 [5]: 1.36 µg/mL
MPI [5]: 100
IC50 [6]: 0.54 µg/mL
IC80 [6]: 3.15 µg/mL
MPI [6]: 99
IC50 [7]: 0.948 µg/mL
IC80 [7]: 6.22 µg/mL
MPI [7]: 97
IC50 [8]: 20.2 µg/mL
IC80 [8]: > 50 µg/mL
MPI [8]: 68
IC50 [9]: > 50 µg/mL
IC80 [9]: > 50 µg/mL
MPI [9]: 26
IC50 [10]: 0.132 µg/mL
IC80 [10]: 0.445 µg/mL
MPI [10]: 100
IC50 [11]: 3.94 µg/mL
IC80 [11]: 25.7 µg/mL
MPI [11]: 87
IC50 [12]: 0.448 µg/mL
IC80 [12]: 2.63 µg/mL
MPI [12]: 100

N49P9 (antibody)
IC50 [1]: 0.089 µg/mL
IC80 [1]: 0.375 µg/mL
MPI [1]: 100
IC50 [2]: 0.147 µg/mL
IC80 [2]: 0.517 µg/mL
MPI [2]: 100
IC50 [3]: 0.042 µg/mL
IC80 [3]: 0.129 µg/mL
MPI [3]: 100
IC50 [4]: 0.055 µg/mL
IC80 [4]: 0.252 µg/mL
MPI [4]: 100
IC50 [5]: 0.072 µg/mL
IC80 [5]: 0.2 µg/mL
MPI [5]: 100
IC50 [6]: 0.025 µg/mL
IC80 [6]: 0.081 µg/mL
MPI [6]: 100
IC50 [7]: 0.051 µg/mL
IC80 [7]: 0.247 µg/mL
MPI [7]: 100
IC50 [8]: 0.308 µg/mL
IC80 [8]: 0.701 µg/mL
MPI [8]: 100
IC50 [9]: 1.09 µg/mL
IC80 [9]: 5.86 µg/mL
MPI [9]: 100
IC50 [10]: 0.015 µg/mL
IC80 [10]: 0.034 µg/mL
MPI [10]: 100
IC50 [11]: 0.023 µg/mL
IC80 [11]: 0.065 µg/mL
MPI [11]: 100
IC50 [12]: 0.028 µg/mL
IC80 [12]: 0.085 µg/mL
MPI [12]: 100

N49P7.2 (antibody)
IC50 [13]: 0.01 µg/mL
IC80 [13]: 0.036 µg/mL
MPI [13]: 100
IC50 [14]: 0.114 µg/mL
IC80 [14]: 0.771 µg/mL
MPI [14]: 100
IC50 [15]: 0.331 µg/mL
IC80 [15]: 1.04 µg/mL
MPI [15]: 100
IC50 [16]: 0.095 µg/mL
IC80 [16]: 0.349 µg/mL
MPI [16]: 100
IC50 [17]: 0.1 µg/mL
IC80 [17]: 0.277 µg/mL
MPI [17]: 100
IC50 [18]: 0.124 µg/mL
IC80 [18]: 0.576 µg/mL
MPI [18]: 100
IC50 [19]: 0.183 µg/mL
IC80 [19]: 0.931 µg/mL
MPI [19]: 97
IC50 [20]: 0.596 µg/mL
IC80 [20]: 2.8 µg/mL
MPI [20]: 99
IC50 [21]: 0.067 µg/mL
IC80 [21]: 0.233 µg/mL
MPI [21]: 100
IC50 [22]: 0.237 µg/mL
IC80 [22]: 0.831 µg/mL
MPI [22]: 100
IC50 [23]: 0.058 µg/mL
IC80 [23]: 0.21 µg/mL
MPI [23]: 100
IC50 [24]: 1.26 µg/mL
IC80 [24]: 4.42 µg/mL
MPI [24]: 100
IC50 [25]: 0.809 µg/mL
IC80 [25]: 2.81 µg/mL
MPI [25]: 100
IC50 [26]: 0.472 µg/mL
IC80 [26]: 2.24 µg/mL
MPI [26]: 100
IC50 [27]: 44.2 µg/mL
IC80 [27]: > 50 µg/mL
MPI [27]: 53

N49P18.1 (antibody)
IC50 [13]: 1.13 µg/mL
IC80 [13]: 8.31 µg/mL
MPI [13]: 100
IC50 [14]: 30.5 µg/mL
IC80 [14]: > 50 µg/mL
MPI [14]: 62
IC50 [15]: 33.4 µg/mL
IC80 [15]: > 50 µg/mL
MPI [15]: 61
IC50 [16]: 5.71 µg/mL
IC80 [16]: 23.1 µg/mL
MPI [16]: 94
IC50 [17]: 4.08 µg/mL
IC80 [17]: 21.8 µg/mL
MPI [17]: 97
IC50 [18]: 4.15 µg/mL
IC80 [18]: 11.6 µg/mL
MPI [18]: 98
IC50 [19]: > 50 µg/mL
IC80 [19]: > 50 µg/mL
MPI [19]: 48
IC50 [20]: > 50 µg/mL
IC80 [20]: > 50 µg/mL
MPI [20]: 46
IC50 [21]: 3.95 µg/mL
IC80 [21]: 21.1 µg/mL
MPI [21]: 96
IC50 [22]: 9.65 µg/mL
IC80 [22]: 40.2 µg/mL
MPI [22]: 84
IC50 [23]: 1.88 µg/mL
IC80 [23]: 6.81 µg/mL
MPI [23]: 100
IC50 [24]: > 50 µg/mL
IC80 [24]: > 50 µg/mL
MPI [24]: 43
IC50 [25]: 16.1 µg/mL
IC80 [25]: 49.1 µg/mL
MPI [25]: 83
IC50 [26]: 24.7 µg/mL
IC80 [26]: > 50 µg/mL
MPI [26]: 68
IC50 [27]: 20 µg/mL
IC80 [27]: > 50 µg/mL
MPI [27]: 71
